Measured values: the supplement of paper PMC7125110
± gives the standard error. For some of these results: Fewer inactive variants are shown than the library holds.

B1: glmS ribozyme (parent)
chain: AUAAAAGCGCCAGAACUACAGAAAUGUAGUUGACGAGGAGGAGGUUUAUCGAAUUUUCGGCGGAUGCCUCCAAA

Key:
Conditions in all cases: with glucosamine-6-phosphate
glucosamine-6-phosphate [1] = variants of: B1; experiment: kcat; higher = faster cleavage; RNA array
In short: (§1)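 Glucosamine-6-phosphate in HEPES/KCl/Mg(OAc)2 buffer, at 40 μM to 10 mM, was flowed over barcoded ribozyme variants transcribed in situ by E. coli RNA polymerase on sequenced MiSeq chips. Tracking was through a hybridised Cy3 probe at 37 °C. kobs, kcat and KM came from exponential decay fits and weighted Michaelis–Menten fits of normalised per-tile medians.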

glucosamine-6-phosphate [2] = variants of: B1; experiment: KM; higher = weaker cofactor use; RNA array
In short: as §1

glucosamine-6-phosphate [3] = variants of: B1; experiment: self-cleavage kobs at 640 uM GlcN6P; higher = faster cleavage; RNA array
In short: as §1

glucosamine-6-phosphate [4] = variants of: B1; experiment: self-cleavage kobs at 2500 uM GlcN6P; higher = faster cleavage; RNA array
In short: as §1

glucosamine-6-phosphate [5] = variants of: B1; experiment: self-cleavage kobs at 10000 uM GlcN6P; higher = faster cleavage; RNA array
In short: as §1

glucosamine-6-phosphate [6] = variants of: B1; experiment: self-cleavage kobs at 40 uM GlcN6P; higher = faster cleavage; RNA array
In short: as §1

glucosamine-6-phosphate [7] = variants of: B1; experiment: self-cleavage kobs at 160 uM GlcN6P; higher = faster cleavage; RNA array
In short: as §1

| Variant | kcat (glucosamine-6-phosphate [1]) [s⁻¹] | KM (glucosamine-6-phosphate [2]) [µM] | self-cleavage kobs at 640 uM GlcN6P (glucosamine-6-phosphate [3]) [s⁻¹] | self-cleavage kobs at 2500 uM GlcN6P (glucosamine-6-phosphate [4]) [s⁻¹] | self-cleavage kobs at 10000 uM GlcN6P (glucosamine-6-phosphate [5]) [s⁻¹] | self-cleavage kobs at 40 uM GlcN6P (glucosamine-6-phosphate [6]) [s⁻¹] | self-cleavage kobs at 160 uM GlcN6P (glucosamine-6-phosphate [7]) [s⁻¹] |
| --- | --- | --- | --- | --- | --- | --- | --- |
| AUAAAAGCGCCAGAACUACAGAAAUGUACAUGACGAGGAGGAGGUUUAUCGAAUUUUCGGCGGAUGCCUCCAAA [G29C U30A] | 0.000322 ± 1.4e-05 | 2880 ± 230 | 5.97e-05 ± 1.4e-05 | 0.000141 ± 3.8e-05 | 0.000253 ± 4.6e-05 | – | – |
| AUAAAAGCGCCAGAACUACAGAAAUGUAUUUGACGAGGAGGAGGUUUAUCGAAUUUUCGGCGGGUGCCUCCAAA [G29U A64G] | 0.00507 ± 0.0025 | – | 0.000939 ± 0.0002 | 0.00221 ± 0.00045 | 0.00594 ± 0.00078 | 0.000212 ± 3.2e-05 | 0.000495 ± 0.00011 |
| AUAAAAGCGCCAGAACUACAGAAAUGUACUUGACGAGGAGGAGGUUUAUUGAAUUUUCGGCGGAUGCCUCCAAA [G29C C50U] | < 1e-05 | – | – | – | – | – | < 1e-05 |
| AUAAAAGCGCCAGAACUACAGAAAUGUACUUGACGAGGAGGAGGUUUAUCGAAUAUUCGGCGGAUGCCUCCAAA [G29C U55A] | 0.00298 ± 0.00096 | 3270 ± 1400 | 0.000406 ± 6.1e-05 | 0.00139 ± 0.00019 | 0.00222 ± 0.00061 | 4.44e-05 ± 1.1e-05 | 0.000171 ± 3e-05 |
| AUAAAAGCGCCAGAACUACAGAAAUGUACUUGACGAGGAGGAGGUUUAUCGAAUUUUCGGCGGGUGCCUCCAAA [G29C A64G] | 0.00121 ± 0.00056 | – | 0.000339 ± 5.2e-05 | 0.000495 ± 0.00014 | 0.00181 ± 0.00034 | 3.98e-05 ± 1.1e-05 | 0.000126 ± 2.9e-05 |
| AUAAAAGCGCCAGAACUACAGAAAUGUACUUGACGAGGAGGAGGUUUAUCGAAUUUUCGGGGGAUGCCUCCAAA [G29C C61G] | 2.64e-05 ± 1e-05 | – | – | – | – | < 1e-05 | – |
| AUAAAAGCGCCAGAACUACAGAAAUGUAUUUGACGAGGAGGAGGUUUCUCGAAUUUUCGGCGGAUGCCUCCAAA [G29U A48C] | 1.88e-05 ± 3.6e-07 | 138 ± 42 | – | – | 1.85e-05 ± 7.6e-06 | < 1e-05 | < 1e-05 |
| AUAAAAGCGCCAGAACUACAGAAAUGUACUUGACGAGGAGGGGGUUUAUCGAAUUUUCGGCGGAUGCCUCCAAA [G29C A42G] | 0.00279 ± 0.00031 | 1790 ± 300 | 0.000724 ± 0.00013 | 0.00144 ± 0.00025 | 0.00253 ± 0.00032 | 6.95e-05 ± 1e-05 | 0.000209 ± 4e-05 |
| AUAAAAGCGCCAGAACUACAGAAAUGUACUUGACGAGGAUGAGGUUUAUCGAAUUUUCGGCGGAUGCCUCCAAA [G29C G40U] | 0.000193 ± 6.2e-06 | 1880 ± 150 | 5.1e-05 ± 8.7e-06 | 0.000106 ± 1.3e-05 | 0.000165 ± 1.5e-05 | – | – |
| AUAAAAGCGCCAGAACUACAGAAAUGUAUUUGUCGAGGAGGAGGUUUAUCGAAUUUUCGGCGGAUGCCUCCAAA [G29U A33U] | 6.61e-05 ± 1.9e-06 | 3280 ± 300 | – | 2.87e-05 ± 9.6e-06 | 4.97e-05 ± 6.7e-06 | – | – |
| AUAAAAGCGCCAGAACUACAGAAAUGUACUUGACGAGGAGGAGGUUUAUCGUAUUUUCGGCGGAUGCCUCCAAA [G29C A52U] | 5.44e-05 ± 2.8e-06 | 1790 ± 390 | – | 3.25e-05 ± 1.4e-05 | 4.6e-05 ± 1e-05 | < 1e-05 | – |
| AUAAAAGCGCCAGAACUACAGAAAUGUACUUGACGAGGAGGAGGUUUAUCGAUUUUUCGGCGGAUGCCUCCAAA [G29C A53U] | 0.00163 ± 0.00038 | 1950 ± 640 | 0.000383 ± 6.3e-05 | 0.000902 ± 0.0002 | 0.00141 ± 0.00024 | 5.34e-05 ± 1.1e-05 | 0.000111 ± 1.9e-05 |
| AUAAAAGCGCCAGAACUACAGAAAUGUACUUGACGAGGAGCAGGUUUAUCGAAUUUUCGGCGGAUGCCUCCAAA [G29C G41C] | 1.23e-05 ± 4.8e-07 | 2750 ± 290 | < 1e-05 | – | – | – | < 1e-05 |
| AUAAAAGCGCCAGAACUACAGAAAUGUACUUGACGAGGAGGAGGUUUAUCGAAUUUUCGGCGGAUACCUCCAAA [G29C G66A] | 0.00186 ± 0.00025 | 4030 ± 750 | 0.00027 ± 3.9e-05 | 0.000714 ± 0.00013 | 0.00132 ± 0.0002 | – | 6.45e-05 ± 1.3e-05 |
| AUAAAAGCGCCAGAACUACAGAAAUGUAUUUGACGAGGAGGAGGUUUAUCGAAUUUUCGGCGGAUGCCUCCAAA [G29U] | 0.00859 ± 0.00066 | 1570 ± 140 | 0.00232 ± 8.4e-05 | 0.01 ± 0.0028 | 0.00757 ± 0.00024 | 0.000218 ± 3.7e-06 | 0.000677 ± 5.2e-05 |
| AUAAAAGCGCCAGAACUACAGAAAUGUACUUGGCGAGGAGGAGGUUUAUCGAAUUUUCGGCGGAUGCCUCCAAA [G29C A33G] | 1.09e-05 ± 3.1e-06 | – | – | – | – | – | – |
